Molecular target: Aldehyde-deformylating oxygenase (Synpcc7942_1593) from Synechococcus elongatus PCC7942 (Synechococcus elongatus PCC7942) (UniProt Q54764)
Sequence (Q54764 whole entry): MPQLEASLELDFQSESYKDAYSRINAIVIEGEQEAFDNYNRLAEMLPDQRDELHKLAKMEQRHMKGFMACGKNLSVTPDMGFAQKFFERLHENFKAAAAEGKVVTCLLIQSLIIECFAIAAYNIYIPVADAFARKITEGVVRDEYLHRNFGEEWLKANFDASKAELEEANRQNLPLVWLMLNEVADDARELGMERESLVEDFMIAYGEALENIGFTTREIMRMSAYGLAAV

Chain of Spinach ferredoxin (P00221 51-147): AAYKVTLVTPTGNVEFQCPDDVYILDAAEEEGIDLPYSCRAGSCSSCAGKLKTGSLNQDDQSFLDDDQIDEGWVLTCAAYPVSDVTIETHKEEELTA

Yield of n-pentadecane by ADO 1593 with Fd (spinach) + FNR (PCC7942) + NADPH: 13.9 µM | Yield of n-pentadecane by ADO 1593 with Fd (spinach) + FNR (spinach) + NADPH: 15.7 µM
Substance: Spinach ferredoxin (from UniProt P00221 51-147) (natural protein)

From PMC3691600, “Conversion of fatty aldehydes into alk (a/e)nes by in vitro reconstituted cyanobacterial aldehyde-deformylating oxygenase with the cognate electron transfer system” (Biotechnology for Biofuels, 2013)
